Test results as given in the supplement of paper PMC5998384.

Experiments:
[1] = test system: HeLa Kyoto; test: solubility change mitosis vs G1/S (difference of NP-40 vs SDS log2 ratios) (log2 ratio difference); higher = more soluble in mitosis
[2] = test system: HeLa Kyoto; test: thermal stability score vs G1/S (z-score of summed log2 fold changes over temperatures); higher = more thermally stable than in G1/S
[3] = test system: HeLa Kyoto; test: melting temperature (median over replicates), in situ; higher = more thermally stable
[4] = cell cycle stage: early G1 (4.5 h after nocodazole release)
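For melting temperature (median over replicates), in situ in this document: HeLa Kyoto cells synchronized by double thymidine or nocodazole block, proteins quantified by TMT10plex mass spectrometry, three independent biological replicates.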
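For solubility change mitosis vs G1/S (difference of NP-40 vs SDS log2 ratios) in this document: synchronized HeLa Kyoto cells (double thymidine block for G1/S, nocodazole release for mitosis), protein amounts in NP-40 versus SDS lysates quantified by mass spectrometry, three biological replicates.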
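For thermal stability score vs G1/S (z-score of summed log2 fold changes over temperatures) in this document: synchronized HeLa Kyoto cells, proteins quantified by TMT10plex mass spectrometry, three biological replicates, mitosis taken 0.5 h after nocodazole release, G1/S directly after double thymidine block.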

Sequence of LSM5 (chain, as listed by the source): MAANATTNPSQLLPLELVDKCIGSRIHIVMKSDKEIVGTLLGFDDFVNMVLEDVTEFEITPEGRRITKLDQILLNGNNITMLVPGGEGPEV

| Substance | solubility change mitosis (log2) [1] | other results |
| --- | --- | --- |
| KPNA2 | 0.136 | – |
| RPL15 | 0.657 | – |
| KIAA1524 | -0.103 | – |
| RPL7 | 0.696 | – |
| RPL27A | 1.02 | – |
| RPS27A | 0.852 | – |
| LEO1 | -0.0441 | – |
| PHLDA3 | 0.0241 | – |
| MRPS7 | -0.0353 | – |
| TRIM16 | -0.177 | – |
| INPP4A | -0.0329 | – |
| RAN | 0.0277 | – |
| RPL36A | 0.902 | – |
| MRPL10 | -0.0658 | – |
| MRPS27 | -0.149 | – |
| OLR1 | 0.51 | – |
| MRPL45 | -0.0934 | – |
| MRPS34 | 0.0157 | – |
| MTOR | -0.154 | – |
| SNRPN | 0.368 | – |
| RPL36 | 0.849 | – |
| MRPS15 | 0.176 | – |

| Substance | solubility change mitosis (log2) [1] | other results |
| --- | --- | --- |
| DDA1 | 0.3 | – |
| ACADSB | -0.0159 | – |
| NDUFB10 | 0.185 | – |
| RPS12 | 0.588 | – |
| DAP3 | -0.0659 | – |
| MRPL48 | -0.0228 | – |
| RSL1D1 | 1.5 | – |
| METAP1 | 0.0188 | – |
| MRPL39 | -0.14 | – |
| MRPL24 | 0.022 | – |
| TCEA1 | -0.0112 | – |
| RPL23A | 0.826 | – |
| MRPL54 | 0.343 | – |
| NUDT5 | 0.0137 | – |
| NCAPG | -0.0373 | – |
| CAPZA1 | -0.0799 | – |
| MRPL51 | -0.136 | – |
| NOC2L | 0.667 | – |
| MRPL37 | -0.0819 | – |
| MRPL23 | 0.185 | – |
| POLR2A | 0.228 | – |
| RBM8A | 0.468 | – |

| Substance | solubility change mitosis (log2) [1] | other results |
| --- | --- | --- |
| MRPL27 | 0.243 | – |
| RPL6 | 0.908 | – |
| RBX1 | -0.338 | – |
| FMR1 | 0.261 | – |
| POLR2C | 0.102 | – |
| RPS3 | 0.437 | – |
| RPL11 | 0.596 | – |
| MAEFPSKVSTRTSSPAQGAEASVSALRPDLGFVRSRLGALMLLQLVLGLLVWALIADTPYHLYPAYGWVMFVAVFLWLVTIVLFNLYLFQLHMKLYMVPWPLVLMIFNISATVLYITAFIACSAAVDLTSLRGTRPYNQRAAASFFACLVMIAYGVSAFFSYQAWRGVGSNAATSQMAGGYA [PLLP] | – | thermal stability score [2, 4]: -2.71; thermal stability score ([2]; cell cycle stage: mitosis): -3.25; melting temperature ([3]; cell cycle stage: G1/S): 56.7 °C; melting temperature ([3]; cell cycle stage: mitosis): 58.5 °C |
| MRPS16 | -0.0244 | – |
| RPS6 | 0.803 | – |
| MTMR1 | 0.0778 | – |
| LSM5 | – | thermal stability score [2, 4]: -2.66; thermal stability score ([2]; cell cycle stage: mitosis): -1.99; melting temperature ([3]; cell cycle stage: G1/S): 55.9 °C; melting temperature ([3]; cell cycle stage: mitosis): 52.9 °C |
| RPL34 | 0.894 | – |
| NEGR1 | -0.204 | – |
| OXA1L | -0.112 | – |
| ARPC4 | -0.115 | – |
| RPL31 | 0.763 | – |
| RPL38 | 0.638 | – |
| CTBP1 | -0.0691 | – |
| CAMKMT | 0.137 | – |
| MIB1 | 0.06 | – |
| SETDB1 | -0.0625 | – |

| Substance | solubility change mitosis (log2) [1] | other results |
| --- | --- | --- |
| RPL24 | 0.971 | – |
| GNB2L1 | 0.272 | – |
| ALYREF | 0.776 | – |
| POLR2K | 0.187 | – |
| SUB1 | 0.154 | – |
| MRPL11 | 0.173 | – |
| ACACA | -0.227 | – |
| GOPC | -0.0477 | – |
| MSGGRAPAVLLGGVASLLLSFVWMPALLPVASRLLLLPRVLLTMASGSPPTQPSPASDSGSGYVPGSVSAAFVTCPNEKVAKEIARAVVEKRLAACVNLIPQITSIYEWKGKIEEDSEVLMMIKTQSSLVPALTDFVRSVHPYEVAEVIALPVEQGNFPYLQWVRQVTESVSDSITVLP [CUTA] | – | thermal stability score [2, 4]: -1.46; thermal stability score ([2]; cell cycle stage: mitosis): -1.38; melting temperature ([3]; cell cycle stage: G1/S): 57.7 °C; melting temperature ([3]; cell cycle stage: mitosis): 54.8 °C |
| MEVVEAAAAQLETLKFNGTDFGVGEGPAAPSPGSAPVPGTQPPLQSFEGSPDAGQTVEVKPAGEQPLQPVLNAVAAGTPAPQPQPPAESPACGDCVTSPGAAEPARAPDSLETSDSDSDSDSETDSDSSSSSSSSSSSSSSSSSSCISLPPVLSDGDDDLQIEKENKNFPLKTKDELLLNELPSVEELTIILPEDIELKPLGMVSSIIEQLVIIESMTNLPPVNEETVIFKSDRQAAGKIFEIFGPVAHPFYVLRFNSSDHIESKGIKIKETMYFAPSMKDFTQYIFTEKLKQDKGSDASWKNDQEPPPEALDFSDDEKEKEAKQRKKSQIQGRKKLKSEFNEPGEDFTEVHQNWNAHSSASEHAKGYRNREFTRGFSRARYPRSCHGRPPPQHFYNSEHMVSQETSGFPSQRQNNPIMPQYPFPLPVFDMHNFPLRPPPPPPPPPVNMGWATPNMAAHPLLNLPYSLPPPPPPPPLPPPPSSGDSNSHFGPYY [NAF1] | – | thermal stability score [2, 4]: 0.0445; thermal stability score ([2]; cell cycle stage: mitosis): -1.83; melting temperature ([3]; cell cycle stage: G1/S): 52 °C; melting temperature ([3]; cell cycle stage: mitosis): 52.1 °C |
| MREIVHLQAGQCGNQIGAKFWEVISDEHGIDPTGTYHGDSDLQLERINVYYNEATGGKYVPRAVLVDLEPGTMDSVRSGPFGQIFRPDNFVFGQSGAGNNWAKGHYTEGAELVDSVLDVVRKEAESCDCLQGFQLTHSLGGGTGSGMGTLLISKIREEYPDRIMNTFSVVPSPKVSDTVVEPYNATLSVHQLVENTDETYCIDNEALYDICFRTLKLTTPTYGDLNHLVSATMSGVTTCLRFPGQLNADLRKLAVNMVPFPRLHFFMPGFAPLTSRGSQQYRALTVPELTQQMFDAKNMMAACDPRHGRYLTVAAVFRGRMSMKEVDEQMLNVQNKNSSYFVEWIPNNVKTAVCDIPPRGLKMSATFIGNSTAIQELFKRISEQFTAMFRRKAFLHWYTGEGMDEMEFTEAESNMNDLVSEYQQYQDATAEEEGEFEEEAEEEVA [TUBB4B] | – | thermal stability score [2, 4]: 0.304; thermal stability score ([2]; cell cycle stage: mitosis): -1.31; melting temperature ([3]; cell cycle stage: mitosis): 54.4 °C |
| RPS11 | 0.597 | – |
| TOLLIP | 0.0779 | – |
| RPS14 | 0.203 | – |
| ARPC3 | 0.222 | – |
| PRKACA | -0.0702 | – |
| KIAA0907 | 0.046 | – |
| MRPL14 | 0.104 | – |
| MAALGGDGLRLLSVSRPERPPESAALGGLGPGLCCWVSVFSCLSLACSYVGSLYVWKSELPRDHPAVIKRRFTSVLVVSSLSPLCVLLWRELTGIQPGTSLLTLMGFRLEGIFPAALLPLLLTMILFLGPLMQLSMDCPCDLADGLKVVLAPRSWARCLTDMRWLRNQVIAPLTEELVFRACMLPMLAPCMGLGPAVFTCPLFFGVAHFHHIIEQLRFRQSSVGNIFLSAAFQFSYTAVFGAYTAFLFIRTGHLIGPVLCHSFCNYMGFPAVCAALEHPQRRPLLAGYALGVGLFLLLLQPLTDPKLYGSLPLCVLLERAGDSEAPLCS [RCE1] | – | thermal stability score [2, 4]: -0.209; thermal stability score ([2]; cell cycle stage: mitosis): -0.247; melting temperature ([3]; cell cycle stage: mitosis): 55.3 °C |
